Laboratory results: patent US20240390531A1 (IMAGINAB, published 2024)

Tests used:
[1] = biological target: T1, purified human FAP antigen (human, UniProt Q12884 26-760, limits assumed); assay: ELISA, plate coated with purified human FAP antigen (FIG. 56F-56G)
Experimental: (§1) Binding kinetics of the novel antigen binding constructs to a purified human FAP antigen was assessed using ELISA. For this assay, a 96 well ELISA plate was coated with the human-FAP antigen diluted to a concentration of 2 mg/mL in coating buffer (0.05M sodium carbonate-bicarbonate buffer, pH 9.6). 100 μl of this coating solution was added to each well in the plate and incubate at 4° C. overnight. The plate was washed 3 times with 300 μl per well of washing buffer (PBS with 0.05% Tween-20). After the last wash, the plate was blocked by adding to each well 200 μl of blocking buffer (PBS with 1% BSA) warmed to room temperature. The plate was then incubated at room temperature for 1 hour under gentle agitation. After blocking, the plate was washed 3 times with 300 μl per well of washing buffer. Dilution samples for each minibody were created by making 2.5× dilutions from a starting sample at 100 ng/mL, or 250 ng/mL, or 1000 ng/mL or 3000 ng/mL in 100 μL sample buffer (PBS with 1% BSA). The dilution samples were transferred to the assay plate and incubated at room temperature for 1 hour under gentle agitation. The plate was then washed 3 times with 300 μl per well of washing buffer.
(§2) Detection was performed by adding 100 μl of HRP labeled detection secondary antibody at an appropriate dilution and incubating the plate at room temperature for 1 hour under gentle agitation. The plate was then washed 3 times with 300 μl per well of washing buffer. For color development, 100 μl of TMB substrate regent, pre-warmed to room temperature, was added to the plate and incubated in the dark at room temperature for 15 min. The reaction was then stopped by adding 100 μl of 650 nm stop solution to the plate and mixed for 1 min at room temperature under gentle agitation. The plate is recorded by reading OD at 650 nm in a plate reader within 20 min after terminating the reaction.

[2] = biological target: T2, purified murine FAP antigen (murine, UniProt P97321 26-761, limits assumed); assay: ELISA, cross-reactivity (FIG. 57A)
[3] = biological target: T1, purified human FAP antigen; assay: ELISA, plate coated with purified human FAP antigen (FIG. 91D)
Experimental: as §1

[4] = biological target: T1, purified human FAP antigen; assay: ELISA, plate coated with purified human FAP antigen (FIG. 91B)
Experimental: as §1

[5] = biological target: T2, purified murine FAP antigen; assay: ELISA, cross-reactivity (FIG. 92)
[6] = biological target: T1, purified human FAP antigen; assay: ELISA, plate coated with purified human FAP antigen (FIG. 91E)
Experimental: as §1

[7] = biological target: T1, purified human FAP antigen; assay: ELISA, plate coated with purified human FAP antigen (FIG. 56A-56C)
Experimental: as §1, §2

FAP = FAP (UniProt Q12884 26-760, limits assumed); assay: binding kinetics, method not stated (FIG. 42B)
[8] = biological target: T2, purified murine FAP antigen; assay: ELISA, cross-reactivity (FIG. 57B)

T2 sequence (P97321 26-761 limits assumed): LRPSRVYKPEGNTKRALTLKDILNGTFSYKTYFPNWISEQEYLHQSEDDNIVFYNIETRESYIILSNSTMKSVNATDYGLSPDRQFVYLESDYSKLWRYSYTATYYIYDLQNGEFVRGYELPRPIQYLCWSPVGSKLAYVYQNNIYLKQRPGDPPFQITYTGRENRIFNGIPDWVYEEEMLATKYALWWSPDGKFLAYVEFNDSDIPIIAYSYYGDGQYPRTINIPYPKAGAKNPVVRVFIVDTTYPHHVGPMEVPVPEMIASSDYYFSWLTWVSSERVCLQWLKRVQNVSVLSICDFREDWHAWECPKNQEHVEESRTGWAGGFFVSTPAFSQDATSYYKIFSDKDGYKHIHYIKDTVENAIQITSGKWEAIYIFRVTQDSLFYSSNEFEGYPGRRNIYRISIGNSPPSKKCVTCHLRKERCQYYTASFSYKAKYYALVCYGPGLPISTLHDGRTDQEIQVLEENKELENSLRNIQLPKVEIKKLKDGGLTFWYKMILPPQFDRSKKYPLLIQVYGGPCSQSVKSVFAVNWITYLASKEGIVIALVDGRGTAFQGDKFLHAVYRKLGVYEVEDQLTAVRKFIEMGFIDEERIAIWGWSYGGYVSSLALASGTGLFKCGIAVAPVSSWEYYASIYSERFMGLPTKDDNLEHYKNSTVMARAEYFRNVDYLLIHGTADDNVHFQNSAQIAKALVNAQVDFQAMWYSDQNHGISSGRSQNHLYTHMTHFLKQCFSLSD

B1: IAB16C3-26 (other)
chain: EIVLTQSPGTLSLSPGERATLSCRASQSVSRSYLAWYQQKPGQAPRLLIIGASTRATGIPDRFSGSGSGTDFTLTISRLEPEDFAVYYCQQGQVIPPTFGQGTKVEIKGGGSGGGGEVQLLESGGGLVQPGGSLRLSCAASGFTFSSHAMSWVRQAPGKGLEWVSAIWASGEQYYADSVKGRFTISRDNSKNTLYLQMNSLRAEDTAVYYCAKGWLGNFDYWGQGTLVTVSSGGCPPCPPC
Question: With B1 as the binder, how does the Kd [1] read?
Answer: ~1000 pM

Question: Does B1 bind [2]?
Answer: binds

B2: IAB16M2-48 (other)
chain: QVQLVQSGAEVKKPGSSVKVSCKASGFSLTNYDINWVRQAPGQGLEWMGLIWTGGGTNYNQKFQGRVTITKDNSTSTAYMELSSLRSEDTAVYYCVRGGPLVWYALDYWGQGTLVTVSSGSTSGGGSGGGSGGGGSSDIQMTQSPSSLSASVGDRVTITCKASQDVSTAVAWYQQKPGKAPKLLIYSASYRYTGVPSRFSGSGSGTDFTLTISSLQPEDFATYYCQQHYSNPRTFGQGTKVEIK
Question: Which Kd [3] does the source give for B2 here?
Answer: ~100 pM

B3: IAB16M2-43 (other)
chain: QVQLQESGPGLVKPSETLSLTCTVSGFSLTNYDINWIRQPPGKGLEWIGLIWTGGGTNYNPSLKSRVTISKDTSKNQFSLKLSSVTAADTAVYYCVRGGPLVWYALDYWGQGTLVTVSSGSTSGGGSGGGSGGGGSSDIQMTQSPSSLSASVGDRVTITCKASQDVSTAVAWYQQKPGKAPKLLIYSASYRYTGVPSRFSGSGSGTDFTFTISSLQPEDIATYYCQQHYSNPRTFGGGTKVEIKEPKSSDKTHTCPPCPPCGGGSSGGGSGGQPREPQVYTLPPSREEMTKNQVSLTCLVKGFYPSDIAVEWESNGQPENNYKTTPPVLDSDGSFFLYSKLTVDKSRWQQGNVFSCSVMHEALHNHYTQKSLSLSPG
Question: B3 was tested. Which Kd [4] did it give?
Answer: ~100 pM

Question: Does B3 bind [5]?
Answer: binds

B4: IAB16M2-53 (other)
chain: QVQLQESGPGLVKPSETLSLTCTVSGFSLTNYDINWIRQPPGKGLEWIGLIWTGGGTNYNPSLKSRVTISKDTSKSQFSLKLSSVTAADTAVYYCVRGGPLVWYALDYWGQGTLVTVSSGSTSGGGSGGGSGGGGSSDIQMTQSPSSLSASVGDRVTITCKASQDVSTAVAWYQQKPGKAPKLLIYSASYRYTGVPSRFSGSGSGTDFTFTISSLQPEDIATYYCQQHYSNPRTFGGGTKVEIKEPKSSDKTHTCPPCPPCGGGSSGGGSGGQPREPQVYTLPPSREEMTKNQVSLTCLVKGFYPSDIAVEWESNGQPENNYKTTPPVLDSDGSFFLYSKLTVDKSRWQQGNVFSCSVMHEALHNHYTQKSLSLSPG
Question: With B4 as the binder, how does the Kd [6] read?
Answer: ~100 pM

B5: IAB16M2-52 (other)
chain: QVQLQESGPGLVKPSETLSLTCTVSGFSLTNYDINWIRQPPGKGLEWIGLIWTGGGTNYNPSLKSRVTISKDTSKNQFSLKLSSVTAADTAVYYCVRGGPLVWYALDYWGQGTLVTVSSGSTSGGGSGGGSGGGGSSDIVMTQSPSSLSASVGDRVTITCKASQDVSTAVAWYQQKPGKAPKLLIYSASYRYTGVPSRFSGSGSGTDFTFTISSLQPEDIATYYCQQHYSNPRTFGGGTKVEIKEPKSSDKTHTCPPCPPCGGGSSGGGSGGQPREPQVYTLPPSREEMTKNQVSLTCLVKGFYPSDIAVEWESNGQPENNYKTTPPVLDSDGSFFLYSKLTVDKSRWQQGNVFSCSVMHEALHNHYTQKSLSLSPG
Question: B5 was tested. Which Kd [6] did it give?
Answer: ~100 pM

B6: IAB16M2-51 (HC-N76S) (other)
chain: QVQLQESGPGLVKPSETLSLTCTVSGFSLTNYDINWIRQPPGKGLEWIGLIWTGGGTNYNPSLKSRVTISKDNSKNQFSLKLSSVTAADTAVYYCVRGGPLVWYALDYWGQGTLVTVSSGSTSGGGSGGGSGGGGSSDIQMTQSPSSLSASVGDRVTITCKASQDVSTAVAWYQQKPGKAPKLLIYSASYRYTGVPSRFSGSGSGTDFTFTISSLQPEDIATYYCQQHYSNPRTFGGGTKVEIKEPKSSDKTHTCPPCPPCGGGSSGGGSGGQPREPQVYTLPPSREEMTKNQVSLTCLVKGFYPSDIAVEWESNGQPENNYKTTPPVLDSDGSFFLYSKLTVDKSRWQQGNVFSCSVMHEALHNHYTQKSLSLSPG
Question: With B6 as the binder, how does the Kd [3] read?
Answer: ~100 pM

B7: IAB16M2-37 (other)
chain: QVQLVQSGAEVKKPGASVKVSCKASGYTFTEYTIHWVRQAPGQRLEWIGGINPNNGIPNYNQKFKGRVTITVDTSASTAYMELSSLRSEDTAVYYCARRRIAYGYDEGHAMDYWGQGTLVTVSSGSTSGGGSGGGSGGGGSSDIVMTQSPDSLAVSLGERATINCKSSQSLLYSRNQKNYLAWYQQKPGQPPKLLIFWASTRESGVPDRFSGSGSGTDFTLTISRLEPEDFAVYYCQQYYSYPLTFGQGTKVEIKEPKSSDKTHTCPPCPPCGGGSSGGGSGGQPREPQVYTLPPSREEMTKNQVSLTCLVKGFYPSDIAVEWESNGQPENNYKTTPPVLDSDGSFFLYSKLTVDKSRWQQGNVFSCSVMHEALHNHYTQKSLSLSPG
notes: also called IAB16B2-37
Question: With B7 as the binder, how does the Kd [7] read?
Answer: ~100 pM

Question: What about the Kd (FAP) of the same binder?
Answer: 1150 pM

Question: What about the koff (FAP) of the same binder?
Answer: 0.00108 s⁻¹

Question: And the kon (FAP)?
Answer: 935000 M⁻¹ s⁻¹

Question: What about the “fold change of KD, murine FAP against human FAP” value [8] of the same binder?
Answer: ~10 fold
